From article PMC12328718

Biological target: T1, SHMT2 K281S-R284S K302S;R305S (UniProt P34897)
T1 sequence: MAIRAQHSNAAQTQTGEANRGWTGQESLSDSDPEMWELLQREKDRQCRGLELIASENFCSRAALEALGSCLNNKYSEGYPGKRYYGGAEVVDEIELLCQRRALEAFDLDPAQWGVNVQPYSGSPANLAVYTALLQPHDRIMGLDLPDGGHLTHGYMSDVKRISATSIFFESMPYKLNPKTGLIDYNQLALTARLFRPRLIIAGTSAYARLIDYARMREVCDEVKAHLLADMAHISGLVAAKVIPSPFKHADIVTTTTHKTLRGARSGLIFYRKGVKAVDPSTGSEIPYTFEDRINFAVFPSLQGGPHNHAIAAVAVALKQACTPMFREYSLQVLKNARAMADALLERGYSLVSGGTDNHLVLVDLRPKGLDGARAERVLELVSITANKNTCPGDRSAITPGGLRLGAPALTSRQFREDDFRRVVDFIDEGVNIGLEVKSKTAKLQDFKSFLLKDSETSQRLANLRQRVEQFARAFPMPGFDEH
Test: EMSA
Conditions: EMSA: 20 mM HEPES pH 7.4, 150 mM NaCl, 20 ug/ml BSA, 0.1 ug tRNA, RNase inhibitor, 8% glycerol, 25 C, 30 min; 4% native PAGE in 0.5x TBE

GGGAUAAAGAAAAAAGCGGUGAGUGGGCGAACUACAAUUCCCAAAAGGCCACAAAGGGGCCACCACUACGCAUGCGUAGAUCCCUCCCGUUAGCUUUGGCGCCUCAGCGAGCUCUUCUCGCGCAUGCGUUCUCCGAACGGUCUUCUUCCGACAGCUUGCUGCCCUAGACCAGAGUUGGUGGCUGGACCUCCUGCGACUUCCGAGUUGCG [UTR2 RNA]
Kd: 1600 nM
